According to US6365126:

Molecular target: H-Ras, P01112
Sequence (P01112 whole entry, looked up): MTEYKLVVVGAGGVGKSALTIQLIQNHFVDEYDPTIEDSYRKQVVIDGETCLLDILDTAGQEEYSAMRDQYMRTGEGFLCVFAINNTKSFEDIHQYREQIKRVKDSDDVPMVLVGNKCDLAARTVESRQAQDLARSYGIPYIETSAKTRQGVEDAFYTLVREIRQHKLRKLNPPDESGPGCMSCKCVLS

B1: human p120GAP catalytic domain fusion protein (protein)
chain: MEKIMPEEEYSEFKELILQKELHVVYALSHVCGQDRTLLASILLRIFLHEKLESLLLCTLNDREISMEDEATTLFRATTLASTLMEQYMKATATQFVHHALKDSILKIMESKQSCELSPSKLEKNEDVNTNLTHLLNILSELVEKIFMASEILPPTLRYIYGCLQKSVQHKWPTNTTMRTRVVSGFVFLRLICPAILNPRMFNIISDSPSPIAARTLILVAKSVQNLANLVEFGAKEPYMEGVNPFIKSNKHRMIMFLDELGNVPELPDTTEHSRTDLSRDLAALHEICVAHSDELRTLSNERGAQQHVLKKLLAITELLQQKQNQYTKTNDVR
GTPase activity of H-Ras (GAP assay): All three fusion proteins stimulated the GTPase activity of H-Ras

B2: Drosophila NF1 catalytic domain (amino acids 1,235-1,614) bacterial fusion protein (protein)
chain: TEFDTLAETVLADRFEQLVQLVTMISDKGELPIAMALANVVTTSQMDELARVLVTLFDAKHLLSPLLWNMFYREVEVSDCMQTLFRGNSLGSKIMAFCFKIYGASYLQMLLEPLIRPLLDEEEETCFEVDPARLDPTEDIEQHRNNLIALTQKVFDAIINSSDRFPPQLRSMCHCLYQVLSKRFPNLLQNNIGAVGTVIFLRFINPAIVSPQELGIVDKQVHSSAKRGLMLMSKILQNIANHVEFSKEQHMLCFNDFLRDHFEAGRRFFIQIASDCETVDQTSHSMSFISDANVLALHRLLWTHQEKIGDYLSSSRDHKAVGRRPFDKMATLLAYLGPPEHKPVDSHMMFSSYARWSSIDMSSTNFEEIMVKHQMHEKEE
GTPase activity of H-Ras (GAP assay): All three fusion proteins stimulated the GTPase activity of H-Ras
